What was measured:
Experiment in all cases: holdup assay
Parameters in all cases: key: below the threshold = too weak to quantify, mostly under pKd 3.1 to 4
Conditions in all cases: plain residues with an end cap or a label only (N-terminal biotin on a linker: ttds)
[1] = target: T1, APBA1_2, Q02410
T1 sequence (Q02410 742-832, limits assumed, looked up): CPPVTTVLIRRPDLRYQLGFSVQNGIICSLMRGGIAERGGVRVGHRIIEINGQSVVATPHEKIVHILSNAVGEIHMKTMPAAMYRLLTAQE

[2] = target: T2, APBA2_2, Q99767
T2 sequence (Q99767 654-744, limits assumed, looked up): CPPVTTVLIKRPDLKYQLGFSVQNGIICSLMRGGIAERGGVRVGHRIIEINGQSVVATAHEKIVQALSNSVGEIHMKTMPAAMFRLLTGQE

[3] = target: ARHGEF12, Q9NZN5-2
ARHGEF12, Q9NZN5-2, sequence (Q9NZN5 other isoform, or with tags, fused parts or gaps): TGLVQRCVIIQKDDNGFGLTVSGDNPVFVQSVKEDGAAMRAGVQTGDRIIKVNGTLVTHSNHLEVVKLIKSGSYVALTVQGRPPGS

[4] = target: DLG2_3, Q15700
[5] = target: T3, DLG3_3, Q92796
T3 sequence (Q92796 374-475, limits assumed, looked up): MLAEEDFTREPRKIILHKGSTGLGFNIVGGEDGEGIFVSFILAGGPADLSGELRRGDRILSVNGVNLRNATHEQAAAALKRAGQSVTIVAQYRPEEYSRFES

[6] = target: T4, DVL3, Q92997
T4 sequence (Q92997 244-331, limits assumed, looked up): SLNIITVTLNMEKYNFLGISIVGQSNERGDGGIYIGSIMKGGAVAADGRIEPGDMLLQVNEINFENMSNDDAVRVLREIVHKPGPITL

[7] = target: FRMPD3, Q5JV73
FRMPD3, Q5JV73, sequence (Q5JV73 12-100): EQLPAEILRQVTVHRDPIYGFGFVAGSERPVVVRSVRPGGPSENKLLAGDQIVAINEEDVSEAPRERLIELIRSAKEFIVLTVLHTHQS

[8] = target: GORASP1, Q9BQQ3
GORASP1, Q9BQQ3, sequence (Q9BQQ3 1-208): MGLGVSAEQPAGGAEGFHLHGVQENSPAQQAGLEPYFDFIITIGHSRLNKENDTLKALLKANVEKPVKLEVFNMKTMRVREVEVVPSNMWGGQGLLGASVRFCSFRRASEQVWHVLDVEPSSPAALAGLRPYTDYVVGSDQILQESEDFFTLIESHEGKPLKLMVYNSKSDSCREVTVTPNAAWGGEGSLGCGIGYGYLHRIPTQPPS

[9] = target: GRASP, Q7Z6J2
GRASP, Q7Z6J2, sequence (Q7Z6J2 96-193): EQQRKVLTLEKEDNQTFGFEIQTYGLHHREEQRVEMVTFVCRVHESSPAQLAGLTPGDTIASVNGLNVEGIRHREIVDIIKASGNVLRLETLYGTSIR

[10] = target: T5, GRIP1_4, Q9Y3R0
T5 sequence (Q9Y3R0 467-571, limits assumed, looked up): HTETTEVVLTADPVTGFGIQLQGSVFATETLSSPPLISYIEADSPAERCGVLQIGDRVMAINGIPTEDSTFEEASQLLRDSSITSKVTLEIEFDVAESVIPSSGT

[11] = target: T6, GRIP1_5, Q9Y3R0
T6 sequence (Q9Y3R0 568-668, limits assumed, looked up): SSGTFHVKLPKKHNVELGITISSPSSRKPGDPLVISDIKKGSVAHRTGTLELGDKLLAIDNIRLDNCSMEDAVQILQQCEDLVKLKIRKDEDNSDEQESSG

[12] = target: IL16_3, Q14005
IL16_3, Q14005, sequence (Q14005 1107-1207): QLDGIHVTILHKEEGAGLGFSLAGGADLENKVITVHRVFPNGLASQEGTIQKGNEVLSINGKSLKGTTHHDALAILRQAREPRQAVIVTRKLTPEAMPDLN

[13] = target: Inadl_1, Q8NI35
Inadl_1, Q8NI35, sequence (Q8NI35 113-229): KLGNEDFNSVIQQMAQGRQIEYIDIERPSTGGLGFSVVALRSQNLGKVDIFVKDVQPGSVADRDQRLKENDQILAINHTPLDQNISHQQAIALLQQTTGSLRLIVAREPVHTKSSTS

[14] = target: Inadl_2, Q8NI35
Inadl_2, Q8NI35, sequence (Q8NI35 238-335): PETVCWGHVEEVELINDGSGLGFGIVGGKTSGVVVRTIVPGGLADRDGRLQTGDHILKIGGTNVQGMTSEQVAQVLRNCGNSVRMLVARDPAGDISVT

[15] = target: LAP2, Q96RT1
LAP2, Q96RT1, sequence (Q96RT1 other isoform, or with tags, fused parts or gaps): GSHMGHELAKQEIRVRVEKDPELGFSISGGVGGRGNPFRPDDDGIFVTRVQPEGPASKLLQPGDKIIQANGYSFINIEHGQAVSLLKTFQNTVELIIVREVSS

[16] = target: LIMK2, P53671
LIMK2, P53671, sequence (P53671 143-248): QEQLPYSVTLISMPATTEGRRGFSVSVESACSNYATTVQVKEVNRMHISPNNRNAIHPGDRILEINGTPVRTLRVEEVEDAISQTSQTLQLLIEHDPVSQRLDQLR

[17] = target: MAGI2_2, Q86UL8
MAGI2_2, Q86UL8, sequence (Q86UL8 410-522): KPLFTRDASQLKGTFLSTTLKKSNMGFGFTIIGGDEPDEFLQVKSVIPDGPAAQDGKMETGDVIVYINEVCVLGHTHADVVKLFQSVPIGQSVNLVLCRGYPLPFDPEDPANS

[18] = target: MAGI2_5, Q86UL8
MAGI2_5, Q86UL8, sequence (Q86UL8 915-1017): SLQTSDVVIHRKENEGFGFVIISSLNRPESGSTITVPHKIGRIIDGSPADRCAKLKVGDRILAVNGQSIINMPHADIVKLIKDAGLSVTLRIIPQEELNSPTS

[19] = target: MAST1, Q9Y2H9
MAST1, Q9Y2H9, sequence (Q9Y2H9 962-1065): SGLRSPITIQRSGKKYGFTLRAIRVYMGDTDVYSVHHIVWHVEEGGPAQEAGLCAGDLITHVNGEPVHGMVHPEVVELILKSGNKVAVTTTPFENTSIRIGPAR

[20] = target: T7, MPDZ_10, O75970
T7 sequence (O75970 1624-1722, limits assumed, looked up): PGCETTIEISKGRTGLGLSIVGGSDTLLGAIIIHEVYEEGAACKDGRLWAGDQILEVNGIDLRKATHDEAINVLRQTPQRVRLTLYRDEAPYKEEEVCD

[21] = target: T8, MPDZ_12, O75970
T8 sequence (O75970 1857-1958, limits assumed, looked up): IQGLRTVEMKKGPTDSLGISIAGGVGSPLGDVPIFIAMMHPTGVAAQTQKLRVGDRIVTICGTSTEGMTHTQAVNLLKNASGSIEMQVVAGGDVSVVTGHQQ

[22] = target: NHERF2_2, Q15599
NHERF2_2, Q15599, sequence (Q15599 142-238): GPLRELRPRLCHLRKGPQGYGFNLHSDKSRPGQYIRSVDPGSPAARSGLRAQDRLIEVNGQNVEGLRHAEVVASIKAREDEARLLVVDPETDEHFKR

[23] = target: NHERF4_4, Q86UT5
NHERF4_4, Q86UT5, sequence (Q86UT5 464-550): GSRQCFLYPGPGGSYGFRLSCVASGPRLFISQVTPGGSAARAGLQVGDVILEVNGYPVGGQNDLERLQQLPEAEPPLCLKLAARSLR

[24] = target: NOS1, P29475
NOS1, P29475, sequence (P29475 9-101): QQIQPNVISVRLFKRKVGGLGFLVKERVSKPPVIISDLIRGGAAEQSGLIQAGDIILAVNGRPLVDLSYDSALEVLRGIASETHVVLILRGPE

[25] = target: T9, PARD3B_1, Q8TEW8
T9 sequence (Q8TEW8 196-299, limits assumed, looked up): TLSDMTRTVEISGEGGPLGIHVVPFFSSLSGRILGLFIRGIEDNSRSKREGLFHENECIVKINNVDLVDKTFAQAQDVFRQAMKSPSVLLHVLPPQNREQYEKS

[26] = target: T10, PCLO, Q9Y6V0
T10 sequence (Q9Y6V0 4491-4600, limits assumed, looked up): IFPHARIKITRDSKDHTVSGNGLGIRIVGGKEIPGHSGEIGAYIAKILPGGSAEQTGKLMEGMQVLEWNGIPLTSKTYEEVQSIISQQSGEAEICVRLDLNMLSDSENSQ

[27] = target: T11, PDZD7_3, Q9H5P4
T11 sequence (Q9H5P4 857-944, limits assumed, looked up): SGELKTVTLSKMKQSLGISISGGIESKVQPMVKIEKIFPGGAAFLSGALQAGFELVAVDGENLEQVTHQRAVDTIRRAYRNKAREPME

STLTIFETAL [ABCC4, O15439] was tested, and the pKd [1] was 4.03, the pKd [2] was “below the threshold” and the pKd [3] was 5.21. The pKd [4] was 3.98, the pKd [5] was 3.83 and the pKd [6] was “below the threshold”. The pKd [7] was 3.6, the pKd [8] was “below the threshold” and the pKd [9] was 4.74. The pKd [10] was “below the threshold”, the pKd [11] was “below the threshold” and the pKd [12] was “below the threshold”. For the same binder, the pKd [13] was 3.53, the pKd [14] was “below the threshold” and the pKd [15] was 4.57. For the same binder, the pKd [16] was “below the threshold”, the pKd [17] was 4.13 and the pKd [18] was 4.69. The pKd [19] was 5.28, the pKd [20] was “below the threshold” and the pKd [21] was “below the threshold”. For the same binder, the pKd [22] was 5.07, the pKd [23] was 4.24 and the pKd [24] was 4.04. The pKd [25] was 3.94, the pKd [26] was “below the threshold” and the pKd [27] was 5.27.

From article PMC9482650, “Quantitative fragmentomics allow affinity mapping of interactomes” (Nature Communications, 2022)
